In PMC4373355 one finds stoichiometry N data, which are given here for 1 molecule.

In assay [1] the target is T1, Human amylin (1-37) (human).
T1 chain: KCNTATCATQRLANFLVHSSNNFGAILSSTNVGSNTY
The assay is described as follows: cross-linking. Particulars: remark: other sources report otherwise.

Assay [2] has the same target. The assay is described as follows: cross-linking. Particulars: remark: other sources report otherwise.

Some results are limits rather than exact numbers.

Regarding KCNTATCATQRLANFLVHSSNNFGAILSSTNVGSNTY [Human amylin (1-37)], the stoichiometry N in assay [1] was below 6; in assay [2], 6.
